These are literature values, as cited in publication PMC3082522.

What is called Kd is the concentration at which binding is half-saturated.

This series addresses filamentous actin (Oryctolagus cuniculus) (UniProt P68135).

For espin (from UniProt Q63618), the Kd is 220 nM.
